T1: mouse His-laminin-α4 (mouse, UniProt P97927 826-1816, limits assumed)
T1 construct: Bought His-tagged recombinant protein; also called Murine LAMA4; recombinant mouse LAMA4-His
T1 sequence (looked up): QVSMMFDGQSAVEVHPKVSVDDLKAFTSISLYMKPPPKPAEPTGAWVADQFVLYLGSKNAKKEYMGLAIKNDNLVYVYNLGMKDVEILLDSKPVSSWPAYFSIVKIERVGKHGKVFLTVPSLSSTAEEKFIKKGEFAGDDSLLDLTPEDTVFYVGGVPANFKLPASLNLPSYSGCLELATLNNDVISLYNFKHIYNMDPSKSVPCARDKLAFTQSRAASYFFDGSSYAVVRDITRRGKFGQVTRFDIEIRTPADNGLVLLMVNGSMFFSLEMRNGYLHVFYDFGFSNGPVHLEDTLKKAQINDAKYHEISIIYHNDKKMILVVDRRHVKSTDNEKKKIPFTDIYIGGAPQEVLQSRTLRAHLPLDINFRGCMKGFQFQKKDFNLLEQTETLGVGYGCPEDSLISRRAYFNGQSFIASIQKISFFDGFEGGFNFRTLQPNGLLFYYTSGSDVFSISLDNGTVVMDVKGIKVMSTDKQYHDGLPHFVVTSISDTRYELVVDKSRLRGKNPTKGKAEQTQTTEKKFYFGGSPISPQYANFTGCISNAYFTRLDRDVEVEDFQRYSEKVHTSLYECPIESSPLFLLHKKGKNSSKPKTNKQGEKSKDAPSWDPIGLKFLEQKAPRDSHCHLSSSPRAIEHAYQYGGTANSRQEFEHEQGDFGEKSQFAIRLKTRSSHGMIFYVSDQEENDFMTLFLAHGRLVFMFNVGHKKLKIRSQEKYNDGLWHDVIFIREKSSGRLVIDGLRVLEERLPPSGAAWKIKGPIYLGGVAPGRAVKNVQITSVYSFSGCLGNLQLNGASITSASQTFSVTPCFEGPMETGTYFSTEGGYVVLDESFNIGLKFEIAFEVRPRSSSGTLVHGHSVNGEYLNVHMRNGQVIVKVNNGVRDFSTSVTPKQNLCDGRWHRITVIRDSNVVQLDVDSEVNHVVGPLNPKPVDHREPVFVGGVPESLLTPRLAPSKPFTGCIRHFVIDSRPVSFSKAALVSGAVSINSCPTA

T2: human His-laminin-α4 (human, UniProt Q16363 833-1823, limits assumed)
T2 construct: Bought His-tagged recombinant protein (R & D Systems); also called Human LAMA4; human His-laminin-α4 (R & D Systems)
T2 sequence: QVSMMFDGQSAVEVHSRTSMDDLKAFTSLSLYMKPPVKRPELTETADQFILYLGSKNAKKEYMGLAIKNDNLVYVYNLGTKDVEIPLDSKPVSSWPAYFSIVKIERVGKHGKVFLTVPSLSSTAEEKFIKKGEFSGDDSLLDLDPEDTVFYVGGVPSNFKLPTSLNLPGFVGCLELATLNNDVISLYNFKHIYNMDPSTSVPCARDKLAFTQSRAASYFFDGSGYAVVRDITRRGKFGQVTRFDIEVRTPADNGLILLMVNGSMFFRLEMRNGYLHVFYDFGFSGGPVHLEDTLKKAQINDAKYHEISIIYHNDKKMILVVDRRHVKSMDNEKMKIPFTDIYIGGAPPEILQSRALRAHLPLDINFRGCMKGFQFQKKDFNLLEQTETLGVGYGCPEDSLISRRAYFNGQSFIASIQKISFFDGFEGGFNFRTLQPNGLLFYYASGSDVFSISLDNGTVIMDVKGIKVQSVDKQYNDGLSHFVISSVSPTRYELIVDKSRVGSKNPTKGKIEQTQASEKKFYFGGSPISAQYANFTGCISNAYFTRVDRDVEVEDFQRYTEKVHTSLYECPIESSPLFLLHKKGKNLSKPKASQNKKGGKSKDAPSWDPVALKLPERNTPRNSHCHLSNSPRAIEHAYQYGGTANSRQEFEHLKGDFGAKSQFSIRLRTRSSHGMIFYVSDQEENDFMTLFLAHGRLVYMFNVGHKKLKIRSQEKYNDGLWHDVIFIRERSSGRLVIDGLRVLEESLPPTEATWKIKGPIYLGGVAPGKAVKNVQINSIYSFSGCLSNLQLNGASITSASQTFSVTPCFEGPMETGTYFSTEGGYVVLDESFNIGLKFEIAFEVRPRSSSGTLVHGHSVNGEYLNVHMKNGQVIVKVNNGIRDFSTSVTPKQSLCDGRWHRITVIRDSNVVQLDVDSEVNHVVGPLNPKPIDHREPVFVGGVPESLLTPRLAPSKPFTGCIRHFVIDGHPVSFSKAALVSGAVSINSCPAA

T3: LGde2, human LAMA4 G domain with LG2 deleted, displayed on 293 cells (human, UniProt Q16363 830-1821, limits assumed)
T3 construct: pDisplay construct on 293 cells; vector tags and anchor not written here; also called LGde2 (LG13)
T3 sequence: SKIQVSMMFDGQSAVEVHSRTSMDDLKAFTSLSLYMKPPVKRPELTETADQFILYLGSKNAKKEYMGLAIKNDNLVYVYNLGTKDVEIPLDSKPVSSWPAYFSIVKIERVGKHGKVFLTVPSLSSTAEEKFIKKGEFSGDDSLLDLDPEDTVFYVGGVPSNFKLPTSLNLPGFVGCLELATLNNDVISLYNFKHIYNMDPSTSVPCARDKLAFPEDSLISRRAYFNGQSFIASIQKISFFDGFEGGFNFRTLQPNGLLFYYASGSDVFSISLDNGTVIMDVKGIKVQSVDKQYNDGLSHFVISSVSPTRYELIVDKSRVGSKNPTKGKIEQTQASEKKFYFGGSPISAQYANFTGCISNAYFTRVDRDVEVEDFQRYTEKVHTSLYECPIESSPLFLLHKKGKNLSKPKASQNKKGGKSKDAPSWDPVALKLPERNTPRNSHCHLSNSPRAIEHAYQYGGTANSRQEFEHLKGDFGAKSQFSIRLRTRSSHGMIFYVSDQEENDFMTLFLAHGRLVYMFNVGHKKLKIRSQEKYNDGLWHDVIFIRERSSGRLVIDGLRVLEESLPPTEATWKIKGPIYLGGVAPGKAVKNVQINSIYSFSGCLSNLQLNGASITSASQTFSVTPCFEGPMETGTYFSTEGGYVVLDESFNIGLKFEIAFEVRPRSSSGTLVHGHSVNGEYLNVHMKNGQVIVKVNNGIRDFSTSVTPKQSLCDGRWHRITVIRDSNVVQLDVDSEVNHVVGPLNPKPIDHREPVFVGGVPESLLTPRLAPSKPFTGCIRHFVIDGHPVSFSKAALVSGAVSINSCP

T4: human LAMA4 LG4-5 modules displayed on 293 cells (human, UniProt Q16363 1453-1821)
T4 construct: pDisplay construct on 293 cells; vector tags and anchor not written here
T4 sequence: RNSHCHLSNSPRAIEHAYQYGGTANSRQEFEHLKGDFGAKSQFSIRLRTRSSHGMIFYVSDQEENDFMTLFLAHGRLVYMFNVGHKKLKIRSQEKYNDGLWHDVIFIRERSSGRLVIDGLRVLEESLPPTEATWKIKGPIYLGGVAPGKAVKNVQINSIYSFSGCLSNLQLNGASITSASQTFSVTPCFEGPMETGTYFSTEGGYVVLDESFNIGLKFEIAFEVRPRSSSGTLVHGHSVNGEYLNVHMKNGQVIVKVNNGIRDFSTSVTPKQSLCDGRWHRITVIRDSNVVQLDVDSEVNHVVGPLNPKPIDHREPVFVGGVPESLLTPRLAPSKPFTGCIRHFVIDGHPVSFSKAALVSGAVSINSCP


Experiments:
[1] = target: T1, mouse His-laminin-α4; assay: Biacore SPR
[2] = target: T2, human His-laminin-α4; assay: Biacore SPR
[3] = target: T3, LGde2, human LAMA4 G domain with LG2 …; assay: flow cytometry on 293 cells displaying LAMA4 G-domain variants; % binding
Description: LGde1 has a full-length G domain (i.e., LG1-5) with LG1 deleted, LGde2 has a full-length G domain with LG2 deleted, and LGde3 has a full-length G domain with LG3 deleted. Recombinant MCAM-Fc protein was able to specifically bind 293 cells expressing LAMA4 variants LG1-5, LG1-3, and LGde 1 (LG23), but not 293 cells expressing LAMA 4 variants LG4-5, LGde2 (LG13), or LGde3 (LG12).

[4] = target: T5, recombinant laminin 411 (human, UniProt P07942 22-1786; P11047 34-1609, limits assumed); assay: flow cytometric blocking assay; antibody pre-incubated with 650-labeled laminin 411; blocked partner: human MCAM on CHO cells; MFI
T5 construct: also called LAMA4 in complex with its gamma1 and beta1 chains
T5 sequence (P07942 22-1786 limits assumed, chain 2 of 2): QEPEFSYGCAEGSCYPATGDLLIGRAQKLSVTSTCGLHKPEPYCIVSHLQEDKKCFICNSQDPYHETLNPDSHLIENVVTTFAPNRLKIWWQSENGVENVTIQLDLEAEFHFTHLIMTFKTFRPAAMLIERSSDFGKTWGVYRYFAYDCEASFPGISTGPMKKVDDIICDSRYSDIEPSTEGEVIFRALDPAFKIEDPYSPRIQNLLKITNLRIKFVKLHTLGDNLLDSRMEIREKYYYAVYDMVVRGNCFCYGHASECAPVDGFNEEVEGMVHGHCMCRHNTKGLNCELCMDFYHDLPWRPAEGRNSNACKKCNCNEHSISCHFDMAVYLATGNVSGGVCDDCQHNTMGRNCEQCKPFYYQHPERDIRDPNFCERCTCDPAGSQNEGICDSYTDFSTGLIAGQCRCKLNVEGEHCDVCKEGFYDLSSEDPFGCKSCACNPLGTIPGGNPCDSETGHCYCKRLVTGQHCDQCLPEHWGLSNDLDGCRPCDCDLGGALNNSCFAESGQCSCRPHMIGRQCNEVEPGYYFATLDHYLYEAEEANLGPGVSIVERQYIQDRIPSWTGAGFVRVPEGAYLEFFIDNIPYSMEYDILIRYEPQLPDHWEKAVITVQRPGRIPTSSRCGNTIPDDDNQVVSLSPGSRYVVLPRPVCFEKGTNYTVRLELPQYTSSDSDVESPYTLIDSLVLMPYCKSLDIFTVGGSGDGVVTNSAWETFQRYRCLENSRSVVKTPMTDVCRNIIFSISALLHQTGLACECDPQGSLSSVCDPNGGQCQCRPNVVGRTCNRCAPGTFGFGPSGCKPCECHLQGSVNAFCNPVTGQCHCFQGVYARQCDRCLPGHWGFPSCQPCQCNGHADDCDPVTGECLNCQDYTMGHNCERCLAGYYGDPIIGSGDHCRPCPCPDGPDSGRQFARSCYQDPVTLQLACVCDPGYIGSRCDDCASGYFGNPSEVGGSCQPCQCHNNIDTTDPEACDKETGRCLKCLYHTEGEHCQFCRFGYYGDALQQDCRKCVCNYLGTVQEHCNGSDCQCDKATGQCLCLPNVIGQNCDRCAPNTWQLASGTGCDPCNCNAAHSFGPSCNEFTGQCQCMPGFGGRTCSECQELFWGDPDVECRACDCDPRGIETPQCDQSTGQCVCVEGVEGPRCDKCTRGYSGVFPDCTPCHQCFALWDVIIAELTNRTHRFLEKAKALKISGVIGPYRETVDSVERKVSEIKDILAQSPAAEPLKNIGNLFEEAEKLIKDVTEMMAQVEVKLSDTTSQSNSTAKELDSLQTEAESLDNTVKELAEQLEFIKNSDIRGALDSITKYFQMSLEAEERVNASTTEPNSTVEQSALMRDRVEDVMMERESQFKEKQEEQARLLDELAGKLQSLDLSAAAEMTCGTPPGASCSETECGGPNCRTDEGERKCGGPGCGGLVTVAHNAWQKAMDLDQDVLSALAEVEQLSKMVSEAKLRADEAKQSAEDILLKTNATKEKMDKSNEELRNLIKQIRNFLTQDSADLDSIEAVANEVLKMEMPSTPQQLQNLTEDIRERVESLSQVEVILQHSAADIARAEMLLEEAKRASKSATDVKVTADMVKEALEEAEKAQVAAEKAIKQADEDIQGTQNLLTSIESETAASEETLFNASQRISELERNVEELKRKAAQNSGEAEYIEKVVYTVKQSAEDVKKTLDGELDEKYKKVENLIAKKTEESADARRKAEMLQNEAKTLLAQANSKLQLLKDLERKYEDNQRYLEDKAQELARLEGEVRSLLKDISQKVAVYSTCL
T5 sequence (P11047 34-1609 limits assumed, chain 3 of 2): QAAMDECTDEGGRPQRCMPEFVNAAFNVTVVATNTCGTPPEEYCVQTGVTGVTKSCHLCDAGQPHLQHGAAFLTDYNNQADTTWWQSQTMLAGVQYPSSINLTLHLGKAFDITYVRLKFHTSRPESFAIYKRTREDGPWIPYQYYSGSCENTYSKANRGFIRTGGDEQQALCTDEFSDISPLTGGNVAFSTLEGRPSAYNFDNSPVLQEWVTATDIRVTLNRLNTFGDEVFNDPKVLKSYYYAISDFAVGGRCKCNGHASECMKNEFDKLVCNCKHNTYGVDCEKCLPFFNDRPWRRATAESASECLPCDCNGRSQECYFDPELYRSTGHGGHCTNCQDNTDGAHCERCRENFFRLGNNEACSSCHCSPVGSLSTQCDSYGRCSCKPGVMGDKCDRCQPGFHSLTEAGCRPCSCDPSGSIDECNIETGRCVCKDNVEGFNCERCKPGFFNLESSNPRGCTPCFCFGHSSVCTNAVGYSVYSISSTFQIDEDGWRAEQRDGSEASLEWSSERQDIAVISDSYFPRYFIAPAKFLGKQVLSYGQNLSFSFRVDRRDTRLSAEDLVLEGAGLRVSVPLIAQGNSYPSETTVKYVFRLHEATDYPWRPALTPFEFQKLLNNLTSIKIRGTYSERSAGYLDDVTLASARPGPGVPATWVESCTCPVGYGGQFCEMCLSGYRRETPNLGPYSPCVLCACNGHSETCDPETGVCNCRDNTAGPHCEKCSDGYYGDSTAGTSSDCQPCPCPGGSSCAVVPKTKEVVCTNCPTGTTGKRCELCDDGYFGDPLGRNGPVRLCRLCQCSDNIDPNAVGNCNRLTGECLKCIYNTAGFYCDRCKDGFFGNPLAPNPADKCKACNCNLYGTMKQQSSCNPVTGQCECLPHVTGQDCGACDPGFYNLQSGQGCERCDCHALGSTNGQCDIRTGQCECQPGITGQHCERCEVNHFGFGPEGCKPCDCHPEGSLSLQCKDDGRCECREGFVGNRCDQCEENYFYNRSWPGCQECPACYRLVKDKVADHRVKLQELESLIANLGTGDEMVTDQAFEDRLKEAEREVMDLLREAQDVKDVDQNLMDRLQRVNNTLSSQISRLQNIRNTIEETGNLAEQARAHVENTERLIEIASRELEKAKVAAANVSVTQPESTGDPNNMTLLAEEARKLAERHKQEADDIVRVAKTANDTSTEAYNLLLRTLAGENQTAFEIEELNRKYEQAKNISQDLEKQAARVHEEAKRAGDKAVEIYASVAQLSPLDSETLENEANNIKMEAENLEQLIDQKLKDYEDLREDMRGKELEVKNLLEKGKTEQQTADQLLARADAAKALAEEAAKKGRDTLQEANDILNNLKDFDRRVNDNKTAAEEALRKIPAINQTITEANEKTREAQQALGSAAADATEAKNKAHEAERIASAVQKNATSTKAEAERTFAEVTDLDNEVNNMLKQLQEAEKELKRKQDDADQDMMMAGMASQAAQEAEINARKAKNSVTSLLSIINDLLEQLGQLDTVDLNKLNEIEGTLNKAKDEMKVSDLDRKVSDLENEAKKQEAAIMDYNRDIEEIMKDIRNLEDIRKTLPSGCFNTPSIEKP
Description: The 19C12 variants chimeric 19C12, H2L3, H2L4, H2L6, H3L6, and isotype control were tested for their ability to block the binding of LAMA4 to its ligand MCAM (FIG. 15) and to bind LAMA4-displaying cells (FIG. 16). To test LAMA4 binding capacity, serially diluted antibodies were pre-incubated with LAMA4-displaying human 293 cells, followed by anti-human-650 secondary antibody incubation. […] Fluorescent signal was assessed via flow cytometric analyses and plotted as mean fluorescence intensity (MFI). All 19C12 variants retained their MCAM blocking and LAMA4 binding activity when compared with chimeric 19C12.
Following two washes with FACS buffer (1% FBS in PBS), cells were resuspended with 650-conjugated anti-pan-laminin antibody (1:1000; Novus Biologicals) and incubated for 20 min at 4° C., and washed again. Cells were analyzed for pan-laminin reactivity by flow cytometry using standard procedures.

[5] = target: T4, human LAMA4 LG4-5 modules displayed on …; assay: flow cytometry on 293 cells displaying LAMA4 G-domain variants, anti-human-650 secondary antibody; MFI
Description: The 19C12 variants chimeric 19C12, H1+chiL, and H2+chiL, and buffer alone were tested for their ability to block the binding of LAMA4 to its ligand MCAM (as shown in FIG. 11) and to bind LAMA4-displaying cells (full length, LG1-3, LG4-5, or untransfected control) (as shown in FIG. 12). […] To test LAMA4 binding capacity, serially diluted antibodies were pre-incubated with LAMA4-displaying human 293 cells, followed by anti-human-650 secondary antibody incubation. Fluorescent signal was assessed via flow cytometric analyses and plotted as mean fluorescence intensity (MFI).

| Kd [1] [nM] | koff [1] [s⁻¹] | kon [1] [M⁻¹ s⁻¹] | Kd [2] [nM] | koff [2] [s⁻¹] | kon [2] [M⁻¹ s⁻¹] | binding result [3] | IC50 (read off the curve) [4] [µg/mL] | binding result [5] | Binder |
| --- | --- | --- | --- | --- | --- | --- | --- | --- | --- |
| 5.27 | 0.0116 | 2.2e+06 | 7.33 | 0.0105 | 1.43e+06 | no binding | – | – | mouse monoclonal antibody 5B5 (antibody, V domains shown) VH: QVQLQQPGAELVKPGASVKLSCKASGYTFTSYWMHWVKQRPGRGLEWIGRIDPNSGGTKHNEKFKSKATLTVDKPSSTAYMQLSSLTSEDSAVYYCAGSPSYYDYALHYAMDYWGQGTSVTVSS VL: not shown |
| – | – | – | – | – | – | – | ~0.7 | no binding (tested: 5 ug/ml) | chimeric 19C12 antibody (antibody, V domains shown, Mouse 19C12 variable regions with human constant regions (captured by anti-human Fc, detected by anti-human secondary); also called chi19C12; 19C12 chi) VH: QVQLQQSGAELVKPGASVKISCKASGYAFSTYWMNWVKQRPGEGLEWIGQIYPGDGDTNYNGKFKGKATLTADKSSSTAYMQLSSLTSEDSAVYFCARSDGYYDYWGQGTTLTVSS VL: NIVLTQSPASLAVSLGQRATISCRASESVDSYGTSFMHWYQQKPGQPPKLLICLASSLESGVPARFSGSGSRTDFTLTIDPVEADDAATYYCQQNNEDPPTFGAGTKLELKR |

From patent US20170158755A1 (PROTHENA BIOSCIENCES, published 2017)
